Data as given in patent EP4663659A1 (Merck Patent GmbH, dated 2025).

Biological target: T1, mouse CD40 (mouse, UniProt P27512 20-193, limits assumed)
T1 construct: also called mCD40
T1 sequence (looked up): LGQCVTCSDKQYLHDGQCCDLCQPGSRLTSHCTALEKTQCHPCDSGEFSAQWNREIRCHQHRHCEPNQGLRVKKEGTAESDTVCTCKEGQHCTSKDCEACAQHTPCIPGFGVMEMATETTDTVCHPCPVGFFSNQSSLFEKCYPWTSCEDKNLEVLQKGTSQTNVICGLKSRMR
Assay: not described; the molecule was used as isotype control in mice

B1: Fusion protein 1 (FP1), anti-MUC-1 × anti-CD40 bispecific binding protein (bispecific antibody, human IgG1, lambda, L234A L235A)
heavy: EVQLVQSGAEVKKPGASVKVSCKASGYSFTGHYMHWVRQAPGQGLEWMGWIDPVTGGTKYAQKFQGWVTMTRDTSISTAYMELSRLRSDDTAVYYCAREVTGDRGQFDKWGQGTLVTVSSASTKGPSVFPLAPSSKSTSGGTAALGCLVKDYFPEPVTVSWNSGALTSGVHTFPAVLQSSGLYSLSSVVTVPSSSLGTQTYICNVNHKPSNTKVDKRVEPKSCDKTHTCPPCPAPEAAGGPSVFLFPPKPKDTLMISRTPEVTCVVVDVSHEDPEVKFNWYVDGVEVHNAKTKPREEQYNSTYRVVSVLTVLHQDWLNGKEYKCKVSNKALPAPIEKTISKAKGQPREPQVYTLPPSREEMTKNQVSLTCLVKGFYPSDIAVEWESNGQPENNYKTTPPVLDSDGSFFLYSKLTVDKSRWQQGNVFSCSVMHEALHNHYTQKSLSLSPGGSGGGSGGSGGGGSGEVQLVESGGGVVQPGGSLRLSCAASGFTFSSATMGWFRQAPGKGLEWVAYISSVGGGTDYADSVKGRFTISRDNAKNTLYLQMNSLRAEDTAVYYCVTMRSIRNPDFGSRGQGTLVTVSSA
light: SYVLTQPPSVSVAPGKTARITCGGNNIGSKSVHWYQQKPGQAPVLVIYYGSNRPSGIPERFSGSNSGNTATLTISRVEAGDEADYYCQVWDSSSDWVFGGGTKLTVLGQPKAAPSVTLFPPSSEELQANKATLVCLISDFYPGAVTVAWKADSSPVKAGVETTTPSKQSNNKYAASSYLSLTPEQWKSHKSYSCQVTHEGSTVEKTVAPTECS
notes: Fully human anti-MUC-1 IgG1 with one anti-human CD40 VHH fused by a 15 aa GS linker to the C-terminus of each heavy chain; also called Anti MUC-1 × CD40; anti MUC-1 × hCD40 A02
binding result: no binding
